Measurements as given in patent US20180305451A1.

target: cyno HIDE1 (cyno); test: FACS, Geo mean ratio of HEK293 cells over-expressing cyno HIDE1 to HEK293 empty vector, antibody 10 ug/ml
Sequence (chain, as listed by the source limits assumed, form in doubt): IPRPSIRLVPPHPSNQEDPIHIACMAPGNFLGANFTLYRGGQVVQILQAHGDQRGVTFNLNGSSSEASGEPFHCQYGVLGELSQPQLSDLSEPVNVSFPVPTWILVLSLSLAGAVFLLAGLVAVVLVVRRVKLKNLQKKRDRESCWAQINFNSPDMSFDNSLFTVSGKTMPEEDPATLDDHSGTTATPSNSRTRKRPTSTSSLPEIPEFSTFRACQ

Row | rMFI OX/EV, 10ug/ml, cHIDE1 (CR) | Binder
1 | 353 | αhHIDE1_AbD25754_hIgG1_Ser_mAb (antibody, V domains shown) VH: QVQLVQSGAEVKKPGASVKVSCKASGYTFSGYGMHWVRQAPGQGLEWMGIISPSNGNTNYAQKFQGRVTMTRDTSISTAYMELSRLRSEDTAVYYCAREVYYGLDVWGQGTLVTVSS VL: DIQMTQSPSSLSASVGDRVTITCRASQSISSWLNWYQQKPGKAPQLLIYGASSLQSGVPSRFSGSGSGTDFTLTISSLQPEDFATYYCQQYISIPITFGQGTKVEIK
2 | 132 | αhHIDE1_AbD25760_hIgG1_Ser_mAb (antibody, V domains shown) VH: QVQLVQSGAEVKKPGSSVKVSCKASGGTFSDYAINWVRQAPGQGLEWMGGIIPNFGTANYAQKFQGRVTITADESTSTAYMELSSLRSEDTAVYYCARGMRSLGGLSYYFDLWGQGTLVTVSS VL: DIQMTQSPSSLSASVGDRVTITCRASQSINSYLNWYQQKPGKAPKLLIYAASSLQSGVPSRFSGSGSGTDFTLTISSLQPEDFATYYCQQYIHYPITFGQGTKVEIK
3 | 328 | αhHIDE1_AbD25755_hIgG1_Ser_mAb (antibody, V domains shown) VH: QVQLVQSGAEVKKPGSSVKVSCKASGGTFSSYAISWVRQAPGQGLEWMGGIVPKFGTAYYAQKFQGRVTITADESTSTAYMELSSLRSEDTAVYYCARENLVYSAIAIWGQGTLVTVSS VL: DIQMTQSPSSLSASVGDRVTITCRASQDISNWLNWYQQKPGKAPKLLIYGASSLQSGVPSRFSGSGSGTDFTLTISSLQPEDFATYYCQQVTSTPFTFGQGTKVEIK
